Results from patent publication US20250092143A1 (UNIVERSITY OF SOUTHERN CALIFORNIA, published 2025).

Assays:
[1] = biological target: T1, αCD3-αEGFR-PD-1-OX40L GEMINI-Exos (human); assay: flow cytometry on BT-20 cells, anti-HA detection
T1 construct: Engineered exosome from Expi293F cells co-transfected with the αCD3-αEGFR-PDGFR TMD and PD-1-CD9-OX40L constructs; Both fusions sit on the same exosome; also called genetically engineered multifunctional immune-modulating exosomes
Description: BT-20 cells were treated with 100 U/mL IFN-γ (BioLegend) for 2 days to induce expression of PD-L1. […] Briefly, cells (300,000 cells per tube) were stained with 100 μg mL⁻¹ of exosomes for 30 minutes at 4° C. Cells were washed three times with PBS containing 2% FBS and stained with an anti-HA antibody (2-2.2.14, from Thermo Fisher Scientific) for 30 minutes at 4° C. […] Thereafter, cells were washed and resuspended in PBS containing 2% FBS, followed by analysis using a BD Fortessa X20 flow cytometer. Data were processed by FlowJo_V10 software (Tree Star Inc., Ashland, OR).

[2] = biological target: T1, αCD3-αEGFR-PD-1-OX40L GEMINI-Exos; assay: assay not named
Description: FIG. 3. […] (A) Immunoblot analysis of purified exosomes. […] Data are shown as mean±SD of duplicates. […] The levels of secreted IL-2 were measured by ELISA.
ELISA analysis of binding of engineered exosomes to ligands and receptors. […] High-binding 96 well plates (Greiner Bio-One, Monroe, NC) were coated with various concentrations of exosomes overnight at room temperature. Following extensive washing with PBST, wells were blocked with PBS containing 1% BSA for 2 hours at room temperature, followed by extensive washing with PBST. Corresponding ligands or receptors ([…]; PD-L1-hFc and PD-L2-hFc from PeproTech, Inc. and OX40-hFc from BioLegend) were added and incubated for 2 hours at room temperature, followed by extensive washing with PBST. Goat anti-human IgG-HRP was subsequently added for 1-hour incubation at room temperature, followed by extensive washing. QuantaBlu fluorogenic peroxidase substrate (Thermo Fisher Scientific, MA) was then added.

Binder	binding result [1]	binding result [2]
PD-L2 on IFN-γ stimulated BT-20 cells (ligand, human, UniProt Q9BQ51 20-273, looked up, whole, on cells; BT-20 cells also carry PD-L1 and EGFR; also called PD-L2^+ BT-20 cells) LFTVTVPKELYIIEHGSNVTLECNFDTGSHVNLGAITASLQKVENDTSPHRERATLLEEQLPLGKASFHIPQVQVRDEGQYQCIIIYGVAWDYKYLTLKVKASYRKINTHILKVPETDEVELTCQATGYPLAEVSWPNVSVPANTSHSRTPEGLYQVTSVLRLKPPPGRNFSCVFWNTHVRELTLASIDLQSQMEPRTHPTWLLHIFIPFCIIAFIFIATVIALRKQLCQKLYSSKDTTKRPVTTTKREVNSAI	binds	–
OX40-hFc (Fc fusion, human, UniProt P43489 29-214, looked up, Bought from BioLegend; also called OX40-Fc; biotinylated OX40-hFc; not shown: human Fc (hFc) of the bought reagent) LHCVGDTYPSNDRCCHECRPGNGMVSRCSRSQNTVCRPCGPGFYNDVVSSKPCKPCTWCNLRSGSERKQLCTATQDTVCRCRAGTQPLDSYKPGVDCAPCPPGHFSPGDNQACKPWTNCTLAGKHTLQPASNSSDAICEDRDPPATQPQETQGPPARPITVQPTEAWPRTSQGPSTRPVEVPGGRA	–	binds
PD-L2-hFc (Fc fusion, human, UniProt Q9BQ51 20-220, looked up, Bought from PeproTech; also called PD-L2-Fc; not shown: human Fc (hFc) of the bought reagent) LFTVTVPKELYIIEHGSNVTLECNFDTGSHVNLGAITASLQKVENDTSPHRERATLLEEQLPLGKASFHIPQVQVRDEGQYQCIIIYGVAWDYKYLTLKVKASYRKINTHILKVPETDEVELTCQATGYPLAEVSWPNVSVPANTSHSRTPEGLYQVTSVLRLKPPPGRNFSCVFWNTHVRELTLASIDLQSQMEPRTHPT	–	binds
